Assay: soluble on expression in E. coli; label from the status in PepcDB or PDB records

For “AHHHHHHGSILDVRGLKPPQPTLMILENLGKLKIGETLEVLGDKPFVDIIPKLEEAGYQVELNKVGEFFVLKVTKTEGSKELKMEVEECDEELKEITEDTNVAKLLKAYPESLDILVKYGFSPLQNPVLRKTLARTVTLKQAKKLIGMSDERFEEMMKELKKLEKR”, the “soluble on expression in E. coli” value was “soluble”.

For “MGSDKIHHHHHHMKVEVNSQALADAVAWTTRVIDARPATPILAGIRLEAIDGTLQLSAFNYAISARHHIEAGVDEAGSVLVLGKLLADITKSLPAAKTYLSTDGSTMTITSGKSTFTMQLMPESEYPDLPVVPTKLGQVDSPTFAQAVNQASVAVSREENRPVLTGIRVQFQGDKVIMSSTDRFRLARSSFTWTPEDATISTTALVRGSLLRDMARSLDEHQNVTIDFDADNPSLLGFENAGRVSTSQLIDGEFPAVDRLYADEYPIHAVINKQALIDAIKRVSLVAERNAPIRMVFSGQELTLSAGTADEAQAKEILDIDMDGEDITVAFNPSYLVDGLSAISEPFVRMKMTTAVKPVEFNGQQEADSDESMDYRYLLVPMRFNN”, the “soluble on expression in E. coli” value was “not soluble”.

For “MSLADFTHLLRPSNFDELIGQDHLSKDKAPLRVLCQKGVLGHSFFFGPSGTGKTSIARIIAKTMELPFYEFNATSIKIEQLRAIFEQYKNTLQKPLIFIDEVHRLAKNQQEVLLPVMENNSALIIGASTENPFFSLTSAIRSRSMLFELHHISNEALSRLLRRALDSSDITCSDEALEYLIKSSGGDARSMLKLLEFASNIGTHITLDILKSLRPNALSVGSSEAGVHYDLSSAMIKSIRGSDMDAAIYYLARLIDGGESAEFIARRLVILASEDVGNANPQALTLATSAMTSVSKIGYPEARIILSQAVIYLCASPKEGHHHHHH”, the “soluble on expression in E. coli” value was “not soluble”.

In the case of “MAHHHHHHMGACGSKGSTSDKGLASDKDGKNAKDRKEAWERIRQAIPREKTAEAKQRRIELFKKFDKNETGKLCYDEVHSGCLEVLKLDEFTPRVRDITKRAFDKARVLGSKLENKGSEDFVEFLEFRLMLCYIYDFFELTVMFDEIDASGNMLVDEEELKRAVPKLEAWGAKVEDPAALFKEIDKNGTGSVTFDEFAAWASAVKLDADGDPDNVPERA”, the “soluble on expression in E. coli” value is reported as “soluble”.

With “MAHHHHHHMLANEGRNASANNTTQPSFLILSSKNRHCITHNLTQIQTRCRPHFTEKRLKRGSWLKREEVWIEVQLCYRLGRRFTPTLFSQCAYRPSIRLGPTGTTGLAVPLLKIIYRQNSTIQKHKKEDDEKRCIKKKTIYGT” the “soluble on expression in E. coli” value was “not soluble”.

For “MTQANLSETLFKPRFKHTETSTLVRRFNRGSQPPMQSALDGKNVPHWYRMINRLMWIWRGVDPREILDVQARIVMSDAERTDDDLYDTVIGYRGGNWIYEWAKQAMDWQQKACQEQDAMRSGRYWLHASTLYNIAAYPHLKGDELAEQAQALANRAYEEAAQRLPGSLREMEFAVPGGSPVTAFLHMPKGDGPFPTVLMCGGLDAMQTDYYTLYERYFAPRGIAMLTLDMPSVGFSSKWKLTQDSSLLHQHVLKALPNVPWVDHTRVAAFGFRFGANVAVRLAYLEAPRLKAVACLGPVVHALLSDPQRQSTVPEMYLDVLASRLGMHDASDEALRVELNRYSLKVQGLLGRRCPTPMLSGFWKNDPFSPEEESRLITTSSSDGKLIEIPFNPVYRNFDRALQEITDWINHRLC”, the “soluble on expression in E. coli” value was “not soluble”.

In the case of “MIANRPQHEKWAVIVNEFGEVGIDGAALLNDELAVAEIAGGCLCCVAGPQMTATVATLLRREKPDRLLIEASGLAHAAGVIDELRAKPLGEALEVAAVLTLVDPRQFIQPDYHRQPLYRDQISIADVLVANKIDTADIPTMEAFRAQAAALFPPKSLVGEVRDGQLDVAWLDAELAAKPRYRPAVLPDNASAWQSAGWTFDPELNFDGERLTRLFDGLPAKVPGLVRAKGVFRVLDSWVWLNWAAGQWGAAQVSWRRDSRFELIAPEFDAAAVEAWLKECLELEHHHHHH”, the “soluble on expression in E. coli” value is reported as “not soluble”.

In the case of “TDNTKPNRMPVAPYWTSPEKMEKKLHAVPAAKTVKFKCPSSGTPQPTLRWLKNGKEFKPDHRIGGYKVRYATWSIIMDSVVPSDKGNYTCIVENEYGSINHTYQLDVVERSPHRPILQAGLPANKTVALGSNVEFMCKVYSDPQPHIQWLKHIEVNGSKIGPDNLPYVQILKTAGVNTTDKEMEVLHLRNVSFEDAGEYTCLAGNSIGLSHHSAWLTVLEALEER”, the “soluble on expression in E. coli” value is reported as “soluble”.

In the case of “MPDIVNRKVEHVEIAAFENVDGLSSSTFLNDVILVHQGFPGISFSEINTKTKFFRKEISVPVMVTGMTGGRNELGRINKIIAEVAEKFGIPMGVGSQRVAIEKAEARESFAIVRKVAPTIPIIANLGMPQLVKGYGLKEFQDAIQMIEADAIAVHLNPAQEVFQPEGEPEYQIYALEKLRDISKELSVPIIVKESGNGISMETAKLLYSYGIKNFDTSGQGGTNWIAIEMIRDIRRGNWKAESAKNFLDWGVPTAASIMEVRYSVPDSFLVGSGGIRSGLDAAKAIALGADIAGMALPVLKSAIEGKESLEQFFRKIIFELKAAMMLTGSKDVDALKKTSIVILGKLKEWAEYRGINLSIYEKVRKRE”, the “soluble on expression in E. coli” value is reported as “soluble”.

In the case of “MAHHHHHHMVFSIPSYLCLGDRPKKVVDERLHGVNFLTSRPKTGHYPDALFDKEFRYVYNGDRYPDPETMARREQMENRKRYITATGFISVFRPKKGEGLGSNYGLLQQEPYIHMPDHPQTRGPQPFPKVKPRQIYTSPSKAGSYGTPGLAITDIGNEYIATIYDQERINAKKERDVWRQRMPPVPFKPVGRRGYTFDEGPATGVSMCYIMTCPFREKRVQPVMKHFIIDKMWLPAGYIPDRPPPVEYWEDPYNGFDPRVDPKSRLKKSEDSIFRTGFRGDNFFYTRSIVFRRL”, the “soluble on expression in E. coli” value is reported as “not soluble”.

With “SLKNTGYILALCLTASGHVLAHDVWITGKQAENNVTAEIGYGHNFPSKGTIPDRRDFFENPRLYNGKETITLKPASTDYVYKTESASKDNGYVLSTYMKPGYWSRTSSGWKPVSREGRNDVAYCEFVTKYAKSFIPGEQQMPAQLYQSPTGHELEIIPLSDISRFSENVKLKVLYKTSPLAGAIMELDSVSYLTSSRHTHAVEHKHPVHKAELTFVTNEDGIVTVPSLHIGQWLAKVQNKKSFQDKSLCDETVDVATLSFSRN” the “soluble on expression in E. coli” value was “not soluble”.

With “MSELILHHYPTSLFAEKARLMLGFKGVNWRSVTIPSIMPKPDLTALTGGYRKTPVLQIGADIYCDTALMARRLEQEKASPAFYPQGQEFAVAGLAAWADSVLFLHAVSLVFQPESMAVRFAKVPPDAAKAFIADRSMLFNGGTASRPPVEQVKHQWPTFMSRLESQLSHGGDFLFGAPSIADFSVAHTLWFLKQTPVTAPFVDDYPSVSVWLDRVLGFGHGSLSDLSSAAAIEIASNATPAPLPDETFIDPNGFKAGDKVAIAAVDYGVEAVEGELMFTGREELILRREDNRAGVVHVHFPRLGFRVEKR” the “soluble on expression in E. coli” value was “soluble”.

With “MAHHHHHHMDTTTLKEADMNQMIIQLMEREKKKKKKKNIYEQKKMEPQNYSHMKKFKISPKEEKSLNKEEIKSHLINFFQEQEKIYKDEELNTKNYIIDETKKKEKEVYLNGYYIYCQDFKNEYNNYFNSFIKESEDIKKDLKDLQIQYMDDKILLGNKRKMELDNMLHFYKEKLLDIKNHWDTKNFCDDNLKNIVYDILNVIN” the “soluble on expression in E. coli” value was “not soluble”.

In the case of “MAHHHHHHMELYQDNKINNVGNIEINQCDGVIKKENDLHVSVIKPITKKIIHCDNMENKMKINAFYKPVELVEEIKNYVHKGDTHLVKLYEDFKNKKDKKVKMKNEYMTKLKNLHILNMINNKKKENECGVVNKNNIVHFNLFNENEDVTPKIETVYIPKLEKNIEVVSHLKENVNVDYTYMVPKPVVIPIEVPILKFRDHFKIIPIRKKIIPVIKYTDNIIYVDCCVEKPYIVYENVIIPVPCDIPIEQKKYIDKVPPI”, the “soluble on expression in E. coli” value is reported as “not soluble”.

With “MSLDLFIPEVAYINPQALKHPLGNEAYQYLKSMGVPIIESNRVSIDTDSPVKNYVKAKKTILLTVSKQKKLQQCKPSADYQFALSSSCPGHCEYCYLQTTQGEKPYMRLFVNIEEILENIQEYMDGNKPNITTFEAASITDPVGLDHITRALEKCITYFGESSHGRLRLVTKFDHVDPYLKLPHNGHTTFRFTINTQWVIKNFEHHTSSAHERVEGAKKIAHANYPLGFIIAPIMLYDHWEKDYKDLLEELSLALKDYEKPIGFEMIQHRFTSKAKDLILQRFPNTKLNLDEESRKLKWGPYGQFKYVYPTEKSDYMRDYLTGLIKDLFPNGRIEYFTEGHHHHHH” the “soluble on expression in E. coli” value was “not soluble”.

In the case of “GPGSMSANDVQNPPVEDDEVPTLEAADTQQASKPSKRYAKAMAKMGLKPEPNISKVHIRKRAALSFVVNQPEVYRFPGTNTFLIFGEAQLGDTTMQTQEAAARAVSGALVEEVGTAGEETSELAGETPAAAAPSESKQTPDDVEIVEGEFDDKEIAVVMAQGKTDRIGAIRALRNNKGDIVNAIMELTMDPN”, the “soluble on expression in E. coli” value is reported as “not soluble”.

Source: the DeepSol protein solubility set
